Biological target: the molecule itself
Assay: SEC; Superdex 200 10/300 GL; protein dialysed in 20 mM HEPES pH 7.5, 50 mM NaCl, 10 mM β-mercaptoethanol, 10% glycerol, about 2 mg/ml; size by comparison with a standard curve

B1: StrepII-MYRF-319:577, the N-terminal fragment from the auto-processing of StrepII-MYRF-319:708-10xHis (domain or fragment, human, UniProt Q9Y2G1-2 319-577, looked up)
chain: PSPGLLQDSDSLSGSYLDPNYQSIKWQPHQQNKWATLYDANYKELPMLTYRVDADKGFNFSVGDDAFVCQKKNHFQVTVYIGMLGEPKYVKTPEGLKPLDCFYLKLHGVKLEALNQSINIEQSQSDRSKRPFNPVTVNLPPEQVTKVTVGRLHFSETTANNMRKKGKPNPDQRYFMLVVALQAHAQNQNYTLAAQISERIIVRASNPGQFESDSDVLWQRAQVPDTVFHHGRVGINTDRPDEALVVHGNVKVMGSLMHP
notes: Myelin regulatory factor MYRF (C11orf9), human, 1111-amino-acid-long isoform; numbers count on: the 1111-amino-acid isoform (NP_037411); Cloned in pET52b between BamHI and SacI; The C-terminal 10xHis stays on the other cleavage product; also called N-terminal fragment of MYRF-319:708; source: E. coli BL21 Star (DE3) pLysS, cut product of StrepII-MYRF-319:708-10xHis, purified (Ni-NTA flow-through, …)
  stoichiometry N: 3

— article PMC3742443, “A Bacteriophage Tailspike Domain Promotes Self-Cleavage of a Human Membrane-Bound Transcription Factor, the Myelin Regulatory Factor MYRF” (PLoS Biology, 2013)
